Reference: patent US11466066B2, “Variants of human BMP7 protein” (ELI LILLY AND COMPANY, priority 2017, dated 2022)

T1: Chordin-like 2 (Homo sapiens, UniProt Q6WN34)
T1 construct: purchased R&D Systems
T1 sequence (Q6WN34 26-429): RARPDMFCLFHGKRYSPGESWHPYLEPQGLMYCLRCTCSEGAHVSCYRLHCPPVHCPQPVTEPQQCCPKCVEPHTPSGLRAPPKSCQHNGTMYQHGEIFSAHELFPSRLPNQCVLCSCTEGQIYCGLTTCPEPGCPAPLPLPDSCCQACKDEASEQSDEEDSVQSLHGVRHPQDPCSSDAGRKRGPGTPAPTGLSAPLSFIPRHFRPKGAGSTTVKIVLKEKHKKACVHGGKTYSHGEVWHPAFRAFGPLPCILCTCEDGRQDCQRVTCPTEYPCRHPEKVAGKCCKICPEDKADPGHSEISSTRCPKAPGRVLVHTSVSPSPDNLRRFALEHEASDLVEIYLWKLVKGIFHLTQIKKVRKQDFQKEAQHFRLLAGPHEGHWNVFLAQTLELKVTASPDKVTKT

T2: Noggin (Homo sapiens, UniProt Q13253)
T2 construct: purchased R&D Systems
T2 sequence (Q13253 28-232): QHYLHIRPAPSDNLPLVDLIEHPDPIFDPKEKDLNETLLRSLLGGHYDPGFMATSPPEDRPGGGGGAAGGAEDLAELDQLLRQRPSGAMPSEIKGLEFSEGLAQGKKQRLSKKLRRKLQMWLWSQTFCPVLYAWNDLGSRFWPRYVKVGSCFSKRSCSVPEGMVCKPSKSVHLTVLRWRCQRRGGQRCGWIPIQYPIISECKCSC

T3: Coco (Homo sapiens, UniProt Q8N907)
T3 construct: purchased R&D Systems
T3 sequence (Q8N907 23-189): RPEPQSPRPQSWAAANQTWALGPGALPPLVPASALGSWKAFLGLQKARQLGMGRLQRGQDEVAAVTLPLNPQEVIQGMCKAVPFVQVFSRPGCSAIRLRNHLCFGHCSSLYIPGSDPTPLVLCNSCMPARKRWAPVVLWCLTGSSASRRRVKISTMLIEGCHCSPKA


Key:
[1] = Stir-induced aggregation (solubility) assay; type: physicochemical; conditions: 40 μg/mL, pH 7.4, stirred 400 rpm
Procedure: Solubility/physical stability of human BMP7 protein and human BMP7 protein variants may be measured in a stir-induced aggregation assay. Proteins are diluted to 40 μg/mL with assay buffer (50 mM sodium phosphate, 150 mM NaCl, pH 7.4) to a total volume of 2 mL. This solution may be put in a 7 mL glass vial containing one ‘flea’ stir bar and stirred at 400-rpm at room temperature. At periodic intervals (typically 0, 30, 60, 90, 120, and 150 minutes) a 150 μL aliquot may be withdrawn and centrifuged for 2 minutes at 16,000×g in a 1.5 mL tube. The supernatant (120 μL) may be transferred to an HPLC vial and the amount of remaining protein may be determined by reversed-phase HPLC under the following conditions: Zorbax C8 SB-300® column (3.5 micron, 4.6×50 mm), mobile phase: A buffer=0.1% TFA (v/v) in water, B buffer=0.085% TFA (v/v) in acetonitrile; flow rate at 1 mL/minute; column heated to 60° C.; autosampler cooled to 10° C., 214 nm UV detection, 80 μL injection, and 20 minute run time using the linear gradient indicated below. From the HPLC chromatograms (not shown) the protein peak or peaks (e.g., mature and pro domains) are integrated and percent change from initial peak area may be calculated.

[2] = molecular target: T4, Follistatin (Homo sapiens, UniProt P19883); assay: BMP inhibitor activity, hepcidin promoter luciferase: Follistatin; type: cell-based
T4 construct: made in house
T4 sequence (P19883 30-344, species assumed): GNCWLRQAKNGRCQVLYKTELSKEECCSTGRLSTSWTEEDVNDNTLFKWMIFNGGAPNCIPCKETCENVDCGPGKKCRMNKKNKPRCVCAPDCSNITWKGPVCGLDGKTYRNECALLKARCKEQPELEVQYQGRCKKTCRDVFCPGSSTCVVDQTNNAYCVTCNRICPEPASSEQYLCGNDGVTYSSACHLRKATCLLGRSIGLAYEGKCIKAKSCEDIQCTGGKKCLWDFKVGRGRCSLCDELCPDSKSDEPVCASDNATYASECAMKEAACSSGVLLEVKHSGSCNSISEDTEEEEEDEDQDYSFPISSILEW
Procedure: (§1) Briefly described, Hep3B2 cells stably transfected with a hepcidin promoter luciferase construct (hereinafter, referred to as Hep3B2_HepPro_luc cells) were used for BMP inhibitor experiments. Hep3B2_HepPro_luc cells may be plated at 30,000 cells per well in a tissue culture treated 96 well plate in DMEM (Hyclone) 5% FBS (Gibco) supplemented with non-essential amino acids (Hyclone) and 200 μg/ml gentecin (Hyclone) for 24 hours. Cells were then starved in OMEM+0.2% BSA for 5 hours. Cells were treated with a mixture of human BMP7 proteins and variants thereof in OMEM (Gibco)+0.2% BSA (Gibco) for 18 hours then developed for luciferase activity utilizing Luciferase reporter Gene Assay Kit (Roche). BMP7 proteins were added at concentrations in the linear range of the assay, at 1 nM and 100 pM. Inhibitors were added at various concentrations in molar excess of the particular BMP7 protein being tested. All BMP inhibitors except Follistatin were purchased from R&D Systems. Follistatin and BMP7 proteins and variants thereof were generated at Eli Lilly and Company.

[3] = molecular target: T1, Chordin-like 2; assay: BMP inhibitor activity, hepcidin promoter luciferase: Chordin-like 2; type: cell-based
Procedure: as §1

[4] = molecular target: T2, Noggin; assay: BMP inhibitor activity, hepcidin promoter luciferase: Noggin; type: cell-based
Procedure: as §1

[5] = tested on: Chordin; assay: BMP inhibitor activity, hepcidin promoter luciferase: Chordin; type: cell-based
Procedure: as §1

[6] = molecular target: T3, Coco; assay: BMP inhibitor activity, hepcidin promoter luciferase: Coco; type: cell-based
Procedure: as §1

[7] = molar excess 100X, Hep3B2_HepPro_luc cells, 18 hours
[8] = Chordin-like 2, molar excess 0.1X
[9] = Chordin-like 2, molar excess 1X
[10] = Chordin-like 2, molar excess 10X
[11] = Chordin-like 2, molar excess 100X, Hep3B2_HepPro_luc cells, 18 hours

Row | % inhibition ([2]; molar excess 0.1X) | % inhibition ([2]; molar excess 1X) | % inhibition ([2]; molar excess 10X) | % inhibition [3, 8] | % inhibition [3, 9] | % inhibition [3, 10] | % inhibition ([4]; molar excess 0.1X) | % inhibition ([4]; molar excess 1X) | % inhibition ([4]; molar excess 10X) | % inhibition ([5]; molar excess 0.1X) | % inhibition ([5]; molar excess 1X) | % inhibition ([5]; molar excess 10X) | % inhibition ([6]; molar excess 0.1X) | % inhibition ([6]; molar excess 1X) | Molecule | Percent of Material Precipitated ([1]; 0 minutes) | Percent of Material Precipitated ([1]; 30 minutes) | Percent of Material Precipitated ([1]; 60 minutes) | Percent of Material Precipitated ([1]; 90 minutes) | Percent of Material Precipitated ([1]; 120 minutes) | Percent of Material Precipitated ([1]; 150 minutes) | also measured
1 | −10.4% | 5.9% | 29.5% | 8.9% | 55.9% | 87.5% | −5.3% | 24.8% | 84.8% | −15.1% | −2.2% | 18.9% | −10.2% | 4.0% | Wild type human pro-BMP7: homodimers of wild type human mature BMP7 in a non-covalent complex with wild type human pro-domain [reference compound] | 0% | 8% | 42% | 51% | 65% | 72% | % inhibition [2, 7]: 79.8%; % inhibition [3, 11]: 88.2%; % inhibition [4, 7]: 87.3%; % inhibition [5, 7]: 76.5%; % inhibition ([6]; molar excess 10X): 17.4%; % inhibition [6, 7]: 81.6%
2 | 10.6% | 10.0% | 23.8% | −3.2% | −1.0% | 9.0% | −7.2% | −6.9% | −1.2% | 6.8% | 5.2% | 5.6% | 7.0% | 7.3% | Human mature BMP7 protein variant F9 (SEQ ID NO: 8): homodimer wherein each monomeric subunit has SEQ ID NO: 8 (Y65G/I86L/F93V/N110G/Y128W), disulfide linked (protein, homodimer, disulfide linked) STGSKQRSQNRSKTPKNQEALRMANVAENSSSDQRQACKKHELYVSFRDLGWQDWIIAPEGYAAGYCEGECAFPLNSYMNATNHALVQTLVHVINPETVPKPCCAPTQLGAISVLYFDDSSNVILKKWRNMVVRACGCH | 0% | 7% | 23% | 24% | 37% | 39% | % inhibition ([2]; molar excess 0.01X): 3.9%; % inhibition ([3]; Chordin-like 2, molar excess 0.01X): −1.5%; % inhibition ([4]; molar excess 0.01X): −2.6%; % inhibition ([5]; molar excess 0.01X): 3.7%; % inhibition ([6]; molar excess 0.01X): 2.3%; % inhibition ([6]; molar excess 10X): 28.5%
3 | −16.6% | −11.9% | 21.1% | −13.7% | 49.0% | 69.5% | −12.2% | 36.7% | 72.8% | −13.1% | −9.2% | 21.3% | −23.6% | −25.9% | Wild type human mature BMP7 (SEQ ID NO: 2): dimer of two glycosylated, 139 amino acid disulfide-linked proteins of about 35 kDa, SEQ ID NO: 2 (protein, listed as Homo sapiens, disulfide-linked glycosylated homodimer) STGSKQRSQNRSKTPKNQEALRMANVAENSSSDQRQACKKHELYVSFRDLGWQDWIIAPEGYAAYYCEGECAFPLNSYMNATNHAIVQTLVHFINPETVPKPCCAPTQLNAISVLYFDDSSNVILKKYRNMVVRACGCH | 100% | 100% | 100% | 100% | 100% | 100% | % inhibition [2, 7]: 54.7%; % inhibition [3, 11]: 71.9%; % inhibition [4, 7]: 73.7%; % inhibition [5, 7]: 70.9%; % inhibition ([6]; molar excess 10X): 37.6%; % inhibition [6, 7]: 77.4%
